Assay results as given in the supplement of paper PMC10065799, “High-throughput profiling of sequence recognition by tyrosine kinases and SH2 domains using bacterial peptide display” (eLife, 2023).

Key:
SHP2-C SH2 = assay: SH2 binding enrichment of the phosphorylated peptide, bacterial display (enrichment ratio); higher = better substrate or ligand; peptides without Tyr show the background
Grb2 SH2 = Grb2 SH2 (UniProt P62993); assay: as above
c-Src SH2 = assay: as above
FGFR3 = FGFR3 (UniProt P22607); assay: phosphorylation enrichment, bacterial display (enrichment ratio); higher = better substrate or ligand; peptides without Tyr show the background
Fer (mouse) = assay: as above
MERTK = MERTK (UniProt Q12866); assay: as above
c-Abl (mouse) = assay: as above
Hck = Hck (UniProt P08631); assay: as above
FGFR1 = FGFR1 (UniProt P11362); assay: as above
Jak2 = Jak2 (UniProt O60674); assay: as above
Fyn = Fyn (UniProt P06241); assay: as above
EPHB2 = EPHB2 (UniProt P29323); assay: as above
Fes = Fes (UniProt P07332); assay: as above
c-Src = assay: as above
EPHB1 = EPHB1 (UniProt P54762); assay: as above
AncSZ = assay: as above
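Throughout, for SH2 binding enrichment of the phosphorylated peptide, bacterial display: peptide library displayed on the E. coli surface as eCPX fusions, selected cells deep-sequenced, score is each peptide's frequency after selection divided by its frequency in the input.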
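Throughout, for phosphorylation enrichment, bacterial display: 11-residue human phosphosite peptides and single-mutation variants displayed on the E. coli surface, counted by deep sequencing, each peptide's frequency after selection divided by its frequency in the unselected input library; frequency after pTyr selection over input frequency; kinase dosed for 20-30% of maximal phosphorylation in three min.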

Chain of Jak2 (O60674 whole entry, looked up): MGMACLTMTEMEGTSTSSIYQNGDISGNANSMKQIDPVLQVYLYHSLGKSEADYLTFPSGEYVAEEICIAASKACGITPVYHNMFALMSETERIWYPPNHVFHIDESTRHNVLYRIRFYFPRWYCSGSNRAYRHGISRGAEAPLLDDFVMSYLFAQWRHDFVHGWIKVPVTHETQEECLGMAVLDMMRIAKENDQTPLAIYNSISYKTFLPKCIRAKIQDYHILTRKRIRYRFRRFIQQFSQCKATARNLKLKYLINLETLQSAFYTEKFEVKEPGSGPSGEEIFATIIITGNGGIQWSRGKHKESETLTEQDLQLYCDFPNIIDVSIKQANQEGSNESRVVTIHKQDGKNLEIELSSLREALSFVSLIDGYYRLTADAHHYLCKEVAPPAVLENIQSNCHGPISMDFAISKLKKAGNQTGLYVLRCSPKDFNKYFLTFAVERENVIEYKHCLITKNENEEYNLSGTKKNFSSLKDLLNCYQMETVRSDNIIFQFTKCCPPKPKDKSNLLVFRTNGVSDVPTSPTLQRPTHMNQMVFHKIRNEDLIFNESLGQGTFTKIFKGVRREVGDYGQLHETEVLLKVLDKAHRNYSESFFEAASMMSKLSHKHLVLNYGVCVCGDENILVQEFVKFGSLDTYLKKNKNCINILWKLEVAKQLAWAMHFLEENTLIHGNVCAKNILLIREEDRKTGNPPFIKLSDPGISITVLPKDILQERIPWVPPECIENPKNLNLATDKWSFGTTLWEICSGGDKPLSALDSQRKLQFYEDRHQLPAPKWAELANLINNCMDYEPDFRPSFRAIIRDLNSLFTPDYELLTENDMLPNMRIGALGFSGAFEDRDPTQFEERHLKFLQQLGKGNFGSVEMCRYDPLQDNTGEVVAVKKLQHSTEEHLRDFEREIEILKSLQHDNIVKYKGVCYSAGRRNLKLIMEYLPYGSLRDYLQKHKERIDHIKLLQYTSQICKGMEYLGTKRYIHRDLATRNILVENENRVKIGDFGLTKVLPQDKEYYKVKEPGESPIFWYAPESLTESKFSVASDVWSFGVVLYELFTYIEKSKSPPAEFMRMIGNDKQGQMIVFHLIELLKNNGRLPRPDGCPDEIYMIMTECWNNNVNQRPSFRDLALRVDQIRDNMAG
Chain of Hck (P08631 whole entry, looked up): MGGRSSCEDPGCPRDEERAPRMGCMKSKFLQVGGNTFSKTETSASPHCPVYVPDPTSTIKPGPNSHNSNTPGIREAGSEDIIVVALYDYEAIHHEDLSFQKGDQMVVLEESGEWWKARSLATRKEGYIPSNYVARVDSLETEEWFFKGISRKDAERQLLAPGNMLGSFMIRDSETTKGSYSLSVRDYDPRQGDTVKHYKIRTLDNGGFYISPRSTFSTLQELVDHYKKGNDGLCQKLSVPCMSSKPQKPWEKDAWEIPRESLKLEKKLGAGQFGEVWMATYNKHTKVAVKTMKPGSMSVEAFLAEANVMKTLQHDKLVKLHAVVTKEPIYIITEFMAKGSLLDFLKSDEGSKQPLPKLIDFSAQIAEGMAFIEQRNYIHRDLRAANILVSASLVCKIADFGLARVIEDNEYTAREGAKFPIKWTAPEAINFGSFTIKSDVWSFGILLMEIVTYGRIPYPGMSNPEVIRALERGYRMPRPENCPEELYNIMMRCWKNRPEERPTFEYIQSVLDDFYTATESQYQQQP
Chain of Fyn (P06241 whole entry, looked up): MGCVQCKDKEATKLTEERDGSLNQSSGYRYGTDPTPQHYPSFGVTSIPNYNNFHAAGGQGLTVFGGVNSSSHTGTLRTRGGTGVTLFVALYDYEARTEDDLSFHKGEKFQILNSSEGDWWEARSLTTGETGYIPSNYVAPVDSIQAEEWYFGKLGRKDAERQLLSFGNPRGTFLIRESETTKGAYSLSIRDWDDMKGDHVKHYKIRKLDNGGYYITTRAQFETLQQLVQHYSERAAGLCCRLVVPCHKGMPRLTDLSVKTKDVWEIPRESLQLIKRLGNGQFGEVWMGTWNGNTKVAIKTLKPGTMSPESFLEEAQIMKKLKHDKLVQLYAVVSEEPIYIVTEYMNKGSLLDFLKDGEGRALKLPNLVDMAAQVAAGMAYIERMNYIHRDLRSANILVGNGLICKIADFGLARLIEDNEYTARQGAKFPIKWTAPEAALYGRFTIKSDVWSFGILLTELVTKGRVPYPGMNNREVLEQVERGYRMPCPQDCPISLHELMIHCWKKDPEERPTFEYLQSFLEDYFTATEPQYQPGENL
Chain of MERTK (Q12866 whole entry, looked up): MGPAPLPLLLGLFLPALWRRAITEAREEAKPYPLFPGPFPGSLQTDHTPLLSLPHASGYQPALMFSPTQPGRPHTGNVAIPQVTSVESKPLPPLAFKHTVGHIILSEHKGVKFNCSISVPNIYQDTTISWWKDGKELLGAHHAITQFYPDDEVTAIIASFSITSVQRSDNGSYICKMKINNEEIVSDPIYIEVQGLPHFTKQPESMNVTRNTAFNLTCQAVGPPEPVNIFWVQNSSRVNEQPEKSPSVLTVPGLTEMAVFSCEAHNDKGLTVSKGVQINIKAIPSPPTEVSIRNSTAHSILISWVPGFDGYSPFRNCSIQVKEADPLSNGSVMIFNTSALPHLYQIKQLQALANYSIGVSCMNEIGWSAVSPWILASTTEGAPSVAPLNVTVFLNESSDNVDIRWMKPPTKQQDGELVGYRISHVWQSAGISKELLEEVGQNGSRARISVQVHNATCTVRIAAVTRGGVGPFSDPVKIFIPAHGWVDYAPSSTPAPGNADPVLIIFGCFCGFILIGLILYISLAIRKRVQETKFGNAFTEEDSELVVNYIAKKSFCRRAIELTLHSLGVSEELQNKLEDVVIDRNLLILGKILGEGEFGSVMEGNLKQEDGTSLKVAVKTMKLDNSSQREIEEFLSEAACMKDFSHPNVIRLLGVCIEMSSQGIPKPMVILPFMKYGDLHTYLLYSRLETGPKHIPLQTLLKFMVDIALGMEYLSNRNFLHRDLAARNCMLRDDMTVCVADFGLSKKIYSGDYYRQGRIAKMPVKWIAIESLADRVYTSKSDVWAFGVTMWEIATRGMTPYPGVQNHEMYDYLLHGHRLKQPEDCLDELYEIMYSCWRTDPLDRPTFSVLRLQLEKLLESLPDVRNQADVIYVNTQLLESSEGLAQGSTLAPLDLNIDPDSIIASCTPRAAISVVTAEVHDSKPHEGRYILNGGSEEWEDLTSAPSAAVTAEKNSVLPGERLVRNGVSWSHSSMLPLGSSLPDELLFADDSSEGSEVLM
Chain of Fes (P07332 whole entry, looked up): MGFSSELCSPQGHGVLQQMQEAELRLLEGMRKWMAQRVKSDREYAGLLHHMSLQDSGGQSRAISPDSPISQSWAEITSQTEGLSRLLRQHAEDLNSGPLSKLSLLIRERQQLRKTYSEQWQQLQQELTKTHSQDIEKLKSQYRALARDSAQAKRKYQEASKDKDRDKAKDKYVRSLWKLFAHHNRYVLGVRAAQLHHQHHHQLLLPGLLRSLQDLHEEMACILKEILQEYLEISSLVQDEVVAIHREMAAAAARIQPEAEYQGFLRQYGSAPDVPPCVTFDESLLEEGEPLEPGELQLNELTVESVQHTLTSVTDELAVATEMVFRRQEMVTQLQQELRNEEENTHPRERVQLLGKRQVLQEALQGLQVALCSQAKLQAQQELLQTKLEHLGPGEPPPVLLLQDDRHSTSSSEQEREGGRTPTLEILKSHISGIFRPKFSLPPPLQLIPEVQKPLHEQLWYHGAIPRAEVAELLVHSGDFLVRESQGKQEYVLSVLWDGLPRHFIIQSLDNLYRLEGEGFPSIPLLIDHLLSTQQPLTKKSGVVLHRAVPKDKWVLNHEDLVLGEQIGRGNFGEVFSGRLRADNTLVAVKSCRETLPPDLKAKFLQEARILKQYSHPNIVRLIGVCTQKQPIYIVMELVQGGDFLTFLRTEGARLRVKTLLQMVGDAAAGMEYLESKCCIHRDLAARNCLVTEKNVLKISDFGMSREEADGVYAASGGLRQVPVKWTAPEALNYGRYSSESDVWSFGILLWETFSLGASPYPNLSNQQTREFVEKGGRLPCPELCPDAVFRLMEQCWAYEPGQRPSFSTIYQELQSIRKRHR
Chain of FGFR3 (P22607 whole entry, looked up): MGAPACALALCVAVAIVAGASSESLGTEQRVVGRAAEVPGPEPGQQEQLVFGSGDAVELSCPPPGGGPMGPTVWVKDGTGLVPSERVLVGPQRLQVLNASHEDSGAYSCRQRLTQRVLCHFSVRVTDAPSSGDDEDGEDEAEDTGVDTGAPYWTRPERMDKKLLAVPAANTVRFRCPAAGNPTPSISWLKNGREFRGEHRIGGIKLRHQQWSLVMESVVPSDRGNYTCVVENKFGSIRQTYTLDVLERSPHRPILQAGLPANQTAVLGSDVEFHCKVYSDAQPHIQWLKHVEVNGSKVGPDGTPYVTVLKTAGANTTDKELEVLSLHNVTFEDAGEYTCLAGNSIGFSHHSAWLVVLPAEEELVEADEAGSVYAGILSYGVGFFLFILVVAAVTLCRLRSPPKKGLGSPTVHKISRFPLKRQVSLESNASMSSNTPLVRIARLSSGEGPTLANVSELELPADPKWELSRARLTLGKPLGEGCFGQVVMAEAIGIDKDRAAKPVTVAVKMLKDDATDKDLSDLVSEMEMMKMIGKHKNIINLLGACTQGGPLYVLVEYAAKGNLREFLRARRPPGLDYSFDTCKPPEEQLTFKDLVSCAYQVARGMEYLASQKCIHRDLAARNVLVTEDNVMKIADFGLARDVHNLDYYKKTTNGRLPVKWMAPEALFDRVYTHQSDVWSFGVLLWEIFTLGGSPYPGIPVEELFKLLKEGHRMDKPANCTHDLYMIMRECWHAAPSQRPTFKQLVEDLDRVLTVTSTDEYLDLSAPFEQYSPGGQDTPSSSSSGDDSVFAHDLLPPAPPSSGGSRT

Row | SH2 binding enrichment (SHP2-C SH2) | SH2 binding enrichment (Grb2 SH2) | SH2 binding enrichment (c-Src SH2) | Sequence | phosphorylation enrichment (FGFR3) | phosphorylation enrichment (Fer (mouse)) | phosphorylation enrichment (MERTK) | phosphorylation enrichment (c-Abl (mouse)) | phosphorylation enrichment (Hck) | phosphorylation enrichment (FGFR1) | phosphorylation enrichment (Jak2) | phosphorylation enrichment (Fyn) | phosphorylation enrichment (EPHB2) | phosphorylation enrichment (Fes) | phosphorylation enrichment (c-Src) | phosphorylation enrichment (EPHB1) | phosphorylation enrichment (AncSZ)
1 | 0.537 | 0.951 | 0.437 | EVVGGYSVHNA [MLH1_Y183_R182G] | 0.599 | 0.372 | 0.369 | 0.643 | 0.44 | 0.339 | 0.504 | 0.324 | 0.314 | 0.729 | 0.336 | 0.306 | 0.528
2 | 0.564 | 0.852 | 1.39 | VIERSYTSADG [DHCR7_Y382_C380R] | 0.466 | 0.454 | 0.395 | 0.565 | 0.392 | 0.414 | 0.578 | 0.496 | 0.478 | 0.692 | 0.419 | 0.388 | 0.571
3 | 0.603 | 0.776 | 0.732 | QPGDICHQTWA [GBA_Y244_Y244C] | 0.608 | 0.462 | 0.306 | 0.741 | 0.337 | 0.507 | 0.906 | 0.478 | 0.45 | 1.08 | 0.369 | 0.515 | 0.796
4 | 0.684 | 1.01 | 0.55 | NQILPYIKELV [PPP2R1B_Y341] | 0.774 | 0.528 | 0.456 | 0.72 | 0.52 | 0.579 | 1.08 | 0.43 | 0.611 | 1.14 | 0.477 | 0.509 | 1.01
5 | 0.635 | 0.948 | 0.58 | QFRFIYMAVQH [PTPN11_Y515_YF] | 1.22 | 1.3 | 0.858 | 1.73 | 1.42 | 0.544 | 2.21 | 0.939 | 0.704 | 2.52 | 1.97 | 1.06 | 2.5
6 | 0.923 | 0.983 | 0.445 | LAEMNYVHQDL [EPHB1_Y740_R743Q] | 1.01 | 0.716 | 0.46 | 0.533 | 0.51 | 0.581 | 0.744 | 0.674 | 0.72 | 1.22 | 0.411 | 1.37 | 1.12
7 | 0.455 | 0.715 | 0.42 | STLEVYRCHPP [IL21R_Y317_S318R] | 0.901 | 0.49 | 0.364 | 0.78 | 0.552 | 0.55 | 1.03 | 0.542 | 0.675 | 1.25 | 0.497 | 0.758 | 1.11
8 | 1.35 | 0.858 | 1.13 | FPCSVYVPDEW [INSR_Y1011] | 0.769 | 0.72 | 0.476 | 1.08 | 0.675 | 0.623 | 1.11 | 0.714 | 0.606 | 1.3 | 1.8 | 0.707 | 1.5
9 | 0.593 | 0.912 | 0.529 | AAVDTYCRHNF [HLA-DRB1_Y107_YF] | 0.715 | 0.589 | 0.497 | 0.755 | 0.501 | 0.426 | 0.88 | 0.415 | 0.516 | 1.04 | 0.548 | 0.562 | 0.794
10 | 0.686 | 1.02 | 0.635 | PEFVVYKPQME [CCRL2_Y170] | 1.08 | 0.898 | 0.972 | 1.42 | 0.883 | 0.673 | 1.82 | 0.814 | 0.843 | 1.82 | 0.783 | 1.12 | 1.7
11 | 0.697 | 0.813 | 0.621 | GFDHSYFFIAT [ESD_Y262_YF] | 5.72 | 0.589 | 0.67 | 1.15 | 0.626 | 7.11 | 5.69 | 0.525 | 0.603 | 1.28 | 0.558 | 0.63 | 1.52
12 | 0.386 | 0.577 | 0.399 | AHEALYLEADL [CENPF_Y1920_E1915A] | 2.09 | 1.12 | 1.03 | 1.09 | 0.736 | 2.2 | 1.05 | 0.692 | 0.802 | 1.29 | 0.855 | 0.781 | 1.82
13 | 0.893 | 1.22 | 1.02 | LNPLVYTLRNA [OR4C12_Y285_V283L] | 1.04 | 0.76 | 1.21 | 1.19 | 1.81 | 1.01 | 1.1 | 2.22 | 1.28 | 1.51 | 3.54 | 0.712 | 1.05
14 | 0.906 | 0.836 | 0.39 | RLVTRYIYNRE [HLA-DQB1_Y62_Y58L] | 0.739 | 0.408 | 0.507 | 0.447 | 0.424 | 0.86 | 0.493 | 0.673 | 0.481 | 0.822 | 0.532 | 0.443 | 0.697
15 | 0.561 | 0.763 | 0.469 | GDFFRYLAEVA [YWHAG_Y133_YF] | 0.664 | 0.486 | 0.429 | 0.78 | 0.477 | 0.683 | 0.964 | 0.432 | 0.51 | 1.18 | 0.447 | 0.503 | 1.07
16 | 0.673 | 0.771 | 0.586 | ALAHKHHGGGG [HBB_Y146_Y146H] | 0.539 | 0.419 | 0.416 | 0.569 | 0.419 | 0.355 | 0.558 | 0.414 | 0.391 | 0.593 | 0.505 | 0.372 | 0.588
